{"source": "paper doi:10.1101/238154", "about": "(bioRxiv, 2017)", "key": {"[1]": {"target": "N-terminally TAMRA-labeled monoubiquitin (UniProt P0CG47 1-76, TAMRA on the N-terminus)", "experiment": "fluorescence polarisation"}, "[2]": {"target": "ubiquitin (untagged) (UniProt P0CG47 1-76)", "experiment": "ITC"}}, "data": [{"binder": "USP4(8-925) wild-type (enzyme) RERPDAETQKSELGPLMRTTLQRGAQWYLIDSRWFKQWKKYVGFDSWDMYNVGEHNLFPGPIDNSGLFSDPESQTLKEHLIDELDYVLVPTEAWNKLLNWYGCVEGQQPIVRKVVEHGLFVKHCKVEVYLLELKLCENSDPTNVLSCHFSKADTIATIEKEMRKLFNIPAERETRLWNKYMSNTYEQLSKLDNTVQDAGLYQGQVLVIEPQNEDGTWPRQTLQSKSSTAPSRNFTTSPKSSASPYSSVSASLIANGDSTSTCGMHSSGVSRGGSGFSASYNCQEPPSSHIQPGLCGLGNLGNTCFMNSALQCLSNTAPLTDYFLKDEYEAEINRDNPLGMKGEIAEAYAELIKQMWSGRDAHVAPRMFKTQVGRFAPQFSGYQQQDSQELLAFLLDGLHEDLNRVKKKPYLELKDANGRPDAVVAKEAWENHRLRNDSVIVDTFHGLFKSTLVCPECAKVSVTFDPFCYLTLPLPLKKDRVMEVFLVPADPHCRPTQYRVTVPLMGAVSDLCEALSRLSGIAAENMVVADVYNHRFHKIFQMDEGLNHIMPRDDIFVYEVCSTSVDGSECVTLPVYFRERKSRPSSTSSASALYGQPLLLSVPKHKLTLESLYQAVCDRISRYVKQPLPDEFGSSPLEPGACNGSRNSCEGEDEEEMEHQEEGKEQLSETEGSGEDEPGNDPSETTQKKIKGQPCPKRLFTFSLVNSYGTADINSLAADGKLLKLNSRSTLAMDWDSETRRLYYDEQESEAYEKHVSMLQPQKKKKTTVALRDCIELFTTMETLGEHDPWYCPNCKKHQQATKKFDLWSLPKILVVHLKRFSYNRYWRDKLDTVVEFPIRGLNMSEFVCNLSARPYVYDLIAVSNHYGAMGVGHYTAYAKNKLNGKWYYFDDSNVSLASEDQIVTKAAYVLFYQRRDD", "values": [{"measurement": "binding result", "setting": "[1]", "value": "binds"}]}, {"binder": "USP4(8-925) C311A mutant (enzyme) RERPDAETQKSELGPLMRTTLQRGAQWYLIDSRWFKQWKKYVGFDSWDMYNVGEHNLFPGPIDNSGLFSDPESQTLKEHLIDELDYVLVPTEAWNKLLNWYGCVEGQQPIVRKVVEHGLFVKHCKVEVYLLELKLCENSDPTNVLSCHFSKADTIATIEKEMRKLFNIPAERETRLWNKYMSNTYEQLSKLDNTVQDAGLYQGQVLVIEPQNEDGTWPRQTLQSKSSTAPSRNFTTSPKSSASPYSSVSASLIANGDSTSTCGMHSSGVSRGGSGFSASYNCQEPPSSHIQPGLCGLGNLGNTAFMNSALQCLSNTAPLTDYFLKDEYEAEINRDNPLGMKGEIAEAYAELIKQMWSGRDAHVAPRMFKTQVGRFAPQFSGYQQQDSQELLAFLLDGLHEDLNRVKKKPYLELKDANGRPDAVVAKEAWENHRLRNDSVIVDTFHGLFKSTLVCPECAKVSVTFDPFCYLTLPLPLKKDRVMEVFLVPADPHCRPTQYRVTVPLMGAVSDLCEALSRLSGIAAENMVVADVYNHRFHKIFQMDEGLNHIMPRDDIFVYEVCSTSVDGSECVTLPVYFRERKSRPSSTSSASALYGQPLLLSVPKHKLTLESLYQAVCDRISRYVKQPLPDEFGSSPLEPGACNGSRNSCEGEDEEEMEHQEEGKEQLSETEGSGEDEPGNDPSETTQKKIKGQPCPKRLFTFSLVNSYGTADINSLAADGKLLKLNSRSTLAMDWDSETRRLYYDEQESEAYEKHVSMLQPQKKKKTTVALRDCIELFTTMETLGEHDPWYCPNCKKHQQATKKFDLWSLPKILVVHLKRFSYNRYWRDKLDTVVEFPIRGLNMSEFVCNLSARPYVYDLIAVSNHYGAMGVGHYTAYAKNKLNGKWYYFDDSNVSLASEDQIVTKAAYVLFYQRRDD", "values": [{"measurement": "Kd", "setting": "[1]", "value": "600 ± 170", "unit": "pM"}]}, {"binder": "SAGA DUB module containing Ubp8^C146A (complex) chain 1: MSICPHIQQVFQNEKSKDGVLKTCNAARYILNHSVPKEKFLNTMKCGTCHEINSGATFMCLQCGFCGCWNHSHFLSHSKQIGHIFGINSNNGLLFCFKCEDYIGNIDLINDAILAKYWDDVCTKTMVPSMERRDGLSGLINMGSTAFMSSILQCLIHNPYFIRHSMSQIHSNNCKVRSPDKCFSCALDKIVHELYGALNTKQASSSSTSTNRQTGFIYLLTCAWKINQNLAGYSQQDAHEFWQFIINQIHQSYVLDLPNAKEVSRANNKQCECIVHTVFEGSLESSIVCPGCQNNSKTTIDPFLDLSLDIKDKKKLYECLDSFHKKEQLKDFNYHCGECNSTQDAIKQLGIHKLPSVLVLQLKRFEHLLNGSNRKLDDFIEFPTYLNMKNYCSTKEKDKHSENGKVPDIIYELIGIVSHKGTVNEGHYIAFCKISGGQWFKFNDSMVSSISQEEVLKEQAYLLFYTIRQVN chain 2: MTEETITIDSISNGILNNLLTTLIQDIVARETTQQQLLKTRYPDLRSYYFDPNGSLDINGLQKQQESSQYIHCENCGRDVSANRLAAHLQRCLSRGARR chain 3: MTMDTAQLKSQIQQYLVESGNYELISNELKARLLQEGWVDKVKDLTKSEMNINESTNFTQILSTVEPKALEMVSDSTRETVLKQIREFLEEIVDTQ chain 4: MRSGDAEIKGIKPKVIEEYSLSQGSGPSNDSWKSLMSSAKDTPLQYDHMNRESLKKYFNPNAQLIEDPLDKPIQYRVCEKCGKPLALTAIVDHLEN", "values": [{"measurement": "Kd", "setting": "[2]", "value": 430, "unit": "mM"}]}]}
